Our source for the self-cleavage values is the RNAGym collection of RNA variant scans (doi:10.1093/nar/gkz1192).

B1: CPEB3 Ribozyme (parent)
chain: UAACAGGGGGCCACAGCAGAAGCGUUCACGUCGCAGCCCCUGUCAGAUUCUGGUGAAUCUGCGAAUUCUGCUGUAUAUCUC

Variants of B1 are the subject of the data set. The experiment in a line: self-cleavage, relative activity (ratio to wild type); higher = more cleavage; in vitro, sequencing. In short, it runs like this:
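CPEB3 self-cleaving ribozyme mutant libraries were made by rounds of error-prone PCR, barcoded, and transcribed in vitro with T7 RNA polymerase for 5 hours at 37°C. Cleavage occurred during transcription and a 15 min DNase I step before EDTA stop. RNAs were reverse transcribed with template switching and Illumina-sequenced, with DNA sequencing mapping barcodes to variants. Relative activity is the variant's cleaved/total read fraction divided by wild type's (minimum 5 reads), averaged across three batches.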
As for U51A G70A, the self-cleavage came to 0.61.
As for G52U U54A, the self-cleavage stood at 1.09.
With G52U U54C, the self-cleavage is 1.14.
The same measure for U51A G53A: 1.27; for C50U G61A: 0.55; for G52C C68U: 1.18.
The same measure for C50A U72C: 0.86; for U51G A65G: 0.72.
U49G C79U: the self-cleavage was determined as 0.77.
The same measure for U51A U67C: 0.4; for U51A U67G: 0.43; for U51A U67A: 0.59.
The same measure for U51A A64U: 0.46.
With U51A A64C the figure was 0.51; with U51A A64G, 0.93; with C50A C71U, 0.55.
Turning to C50A C71G, the self-cleavage was found to be 0.18.
As to G52A A75G, the self-cleavage came out at 0.99.
The same measure for U51A G61A: 1.01.
The same measure for U49G U72C: 0.72; for U51A C68U: 1.04; for U51A C68A: 0.4.
With C50U U78A the figure was 1.12.
Regarding C50U U78C, the self-cleavage is 0.97.
On to U51C U54G, for which the self-cleavage stood at 0.82.
With U51C U54C the figure was 1.07; with U51C U54A, 1.03; with C50G A75C, 0.54.
For the variant U51C G55A, the self-cleavage stood at 0.75.
With U51C G55U the figure was 0.73; with G52U C68U, 1.19.
The same measure for C50A U66C: 0.3; for G52U A64G: 1.08.
The same measure for G52U A64U: 0.39; for G52C U54G: 1.12; for G52C U54A: 1.14.
For U51A U60A, the self-cleavage came out at 0.64.
For U51A U60C, the self-cleavage was found to be 0.59.
Turning to U51C A77U, the self-cleavage turned out to be 0.95.
The same measure for U51C A77G: 1.08.
The same measure for U51C A77C: 0.98; for U51C G61C: 0.25; for U51C G61A: 0.71.
With G52C G70U the figure was 0.53.
As for U51C U76G, the self-cleavage was found to be 1.16.
As to U51C U76A, the self-cleavage was determined as 1.21.
With U51C U76C the figure was 1.07.
Take U51A G52A: the self-cleavage is 1.21.
For the variant U51A G52U, the self-cleavage is 1.16.
The same measure for U51A G52C: 1.09; for U51G A64G: 0.85; for U51G A64U: 0.52.
With C50U G52A the figure was 0.99; with C50G A56U, 0.45; with C50U U72C, 1.13.
C50U U72A: the self-cleavage stood at 0.28.
With U51C A56U the figure was 0.74; with U51C A56G, 0.84; with U51C A56C, 0.31.
The same measure for U51C G73A: 1.24.
With C50A U67A, the self-cleavage was 0.38.
The same measure for C50A U67C: 0.2; for U51A A65G: 0.48.
With U51A A65U, the self-cleavage came out at 0.21.
With G52C A64G the figure was 1.04; with C50U G63U, 0.82.
Take U51C G70A: the self-cleavage was 0.47.
Regarding U51C C79A, the self-cleavage turned out to be 1.24.
Turning to G52C A77C, the self-cleavage was 1.11.
With G52C A77G the figure was 1.16; with C50A A57U, 0.22; with U51G U80C, 1.11.
In the case of U51G U80A, the self-cleavage came out at 1.
With G52C A65U the figure was 0.32; with G52C A65G, 0.49; with G52U G61C, 0.22.
With G52U G61A the figure was 1.02; with U51G U69C, 0.62.
The same measure for U51G U69G: 0.49.
For U51G U66C, the self-cleavage was 0.21.
Consider U51C G53A, for which the self-cleavage worked out at 1.18.
With U51C G53C the figure was 1.01.
With U51C G53U the figure was 1.2; with G52C U72C, 1.24; with G52C U72A, 1.
The same measure for C50G G61A: 0.27; for G52A U69C: 0.62.
Consider G52A U69G, for which the self-cleavage turned out to be 0.98.
With G52A U69A the figure was 0.84.
With C50U U66A the figure was 0.22; with C50U U66C, 0.45; with G52U U58C, 0.87.
On to U51A U72A, for which the self-cleavage was found to be 0.69.
With U51A U72C the figure was 1.15; with U51A U72G, 0.91; with C50A U76C, 1.02.
With C50A U76A the figure was 0.65.
On to C50U A75U, for which the self-cleavage worked out at 1.22.
The same measure for G52A U76C: 1.06; for G52A U76G: 1.15; for U51C A64G: 0.81.
With U51C A64U the figure was 0.42; with U51C U66A, 0.65; with U51C U66C, 0.49.
With C50A the figure was 0.88; with C50G, 0.8.
In the case of C50U, the self-cleavage worked out at 1.01.
The same measure for G52U A65G: 0.51; for G52U A65U: 0.28.
With U49G U60C the figure was 0.23; with U51C G52A, 1.15; with U51C G52C, 1.
U51C G52U: the self-cleavage amounted to 0.94.
With C50A U54A the figure was 0.88.
For the variant C50A U54C, the self-cleavage was 0.83.
Consider G52C G61C, for which the self-cleavage came out at 0.34.
On to G52A A56G, for which the self-cleavage turned out to be 1.19.
On to G52A A56U, for which the self-cleavage came to 1.14.
For C50U U69C, the self-cleavage was 0.41.
As to U51C A65G, the self-cleavage came out at 0.56.
With U51C A65U the figure was 0.27; with G52U U67G, 0.33.
The same measure for G52U U67A: 0.71; for G52U U67C: 0.32; for U51G U54A: 1.28.
The same measure for U51G U54C: 1.06.
For the variant U51G U54G, the self-cleavage worked out at 0.24.
The same measure for C50A A56G: 0.43; for U51A U58C: 0.54.
The same measure for U51A U58A: 0.3; for U51A U74A: 1.29.
On to U51A U74C, for which the self-cleavage came to 1.21.
As for C50A A65G, the self-cleavage stood at 0.31.
With C50G U72C the figure was 0.75; with C50G U72A, 0.58.
The same measure for U51A G55U: 1.08; for G52A U80A: 1.15.
With G52A U80C the figure was 1.18; with U51G C62U, 0.24.
For C50A U80A, the self-cleavage worked out at 0.83.
With C50A U80C, the self-cleavage is 1.05.
For U49G A75G, the self-cleavage amounted to 0.42.
For the variant U51C U60A, the self-cleavage was determined as 0.49.
With U51C U60G the figure was 0.4.
As for U51C U60C, the self-cleavage is 0.36.
With C50U U54G the figure was 0.74.
The same measure for C50U U54C: 0.77; for U51C U69A: 0.7.
The same measure for U51C U69G: 0.56; for U51C U69C: 0.6.
With U51C U72C, the self-cleavage stood at 1.01.
With U51C U72G the figure was 0.88.
The same measure for U51C U72A: 0.75; for U51A G63U: 1.15.
The same measure for U51A G63A: 1.
With U51A A75G, the self-cleavage turned out to be 0.86.
With U51A A75U the figure was 1.03; with U51G G53C, 1.19.
As to U51C U67G, the self-cleavage worked out at 0.38.
Regarding U51C U67A, the self-cleavage was found to be 0.56.
The same measure for U51C U67C: 0.4.
As to G52U U69C, the self-cleavage was found to be 0.73.
With G52U U69A the figure was 0.72; with C50A A64C, 0.43; with C50A A64G, 0.73.
C50G U78C: the self-cleavage was determined as 0.71.
The same measure for G52U U72A: 0.73.
